Where no end group is shown, it is not given here. [ ]: non-standard residue; d: D form. Lys(Me3) = C[N+](C)(C)CCCC[C@H](N)C(=O)O
Tests used:
H3K4me3 peptide [1] = biological target: T1, H3K4me3 peptide (also: biotinylated, site not given here); experiment: phage ELISA [A]
T1 peptide: ART[Lys(Me3)]QTARKSTGGYCD

H3K27me3 peptide [2] = biological target: T2, H3K27me3 peptide (trimethyl-lysine at K27 (histone H3 numbering); biotinylated through the GYCD tag); experiment: phage ELISA [A]
T2 peptide: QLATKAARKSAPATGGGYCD

H4K20me3 peptide [3] = biological target: T3, H4K20me3 peptide (trimethyl-lysine at K20 (histone H4 numbering); biotinylated through the GYCD tag); experiment: phage ELISA [A]
T3 peptide: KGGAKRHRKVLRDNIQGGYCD

H3K4me3 peptide [4] = biological target: T1, H3K4me3 peptide; experiment: yeast display, flow cytometry [B]
H3K27me3 peptide [5] = biological target: T2, H3K27me3 peptide; experiment: yeast display, flow cytometry [B]
H3K36me3 peptide [6] = biological target: T4, H3K36me3 peptide (K(me3) at H3 K36; K(biotin) near the C-terminus, as printed: SAPATGGVK-K(me3)-PHRYRPGG-K(biotin)-D); experiment: yeast display, flow cytometry [B]
T4 peptide: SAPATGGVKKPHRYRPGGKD

H3K4me3 peptide [7] = biological target: T1, H3K4me3 peptide; experiment: yeast display, flow cytometry [A]
H3K27me3 peptide [8] = biological target: T2, H3K27me3 peptide; experiment: yeast display, flow cytometry [A]
H4K20me3 peptide [9] = biological target: T3, H4K20me3 peptide; experiment: yeast display, flow cytometry [A]
H3K36me3 peptide [10] = biological target: T4, H3K36me3 peptide; experiment: peptide IP assay (FIG. 8B)
H3K56me3 peptide [11] = biological target: T5, H3K56me3 peptide (K(me3) at H3 K56; K(biotin) near the C-terminus, as printed: LREIRRYQ-K(me3)-STELLIRGG-K(biotin)-D); experiment: peptide IP assay (FIG. 8B)
T5 peptide: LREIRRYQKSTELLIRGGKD

H3K4me3 peptide [12] = biological target: T1, H3K4me3 peptide; experiment: quantitative peptide IP assay
H3K4me3 peptide [13] = biological target: T1, H3K4me3 peptide; experiment: peptide IP assay (antibody on beads, flow cytometry)
H3K4me3 peptide [14] = biological target: T1, H3K4me3 peptide; experiment: quantitative peptide IP assay, biotinylated Fab on streptavidin beads, flow cytometry
[15] = biological target: T6, cross-linked chromatin from HEK293T cells; experiment: cross-linked ChIP from HEK293T cells followed by qPCR
T6 construct: A protein-DNA complex

H3K4me3 peptide [16] = biological target: T1, H3K4me3 peptide; experiment: peptide IP assay (antibody on beads, flow cytometry)
H4K20me3 peptide [17] = biological target: T3, H4K20me3 peptide; experiment: as above
H3K36me3 peptide [18] = biological target: T4, H3K36me3 peptide; experiment: as above
H3K56me3 peptide [19] = biological target: T5, H3K56me3 peptide; experiment: as above

B1: 9H2 (scFv)
scFv: EVQLVETGGGVVQPGRSLRLSCTASGFTFRDHWMSWVRQAPGKGLEWVADIDQEGRWGYYLDAVKGRFTISRDNAKSSLYLQMNSLGAEDTAVYYCARDFLVGFGWHFDLWGRGTLVTVSSSYVLTQPPSVSVAPGQTARITCGGTNIGDISVHWYQQRPGQAPLVVVYDDSDRPSGIPERFSGSNSGNTATLTISRVEAGDEADYYCQVWDDSINAYVFGTGTKVTVL
H3K4me3 peptide [1]
  binding result: no binding (tested: 100 nM peptide)
H3K27me3 peptide [2]
  binding result: no binding (tested: 100 nM peptide)
H4K20me3 peptide [3]
  binding result: no binding (tested: 100 nM peptide)

B2: 20H1 (scFv)
scFv: EVQLVETGGGVVQPGRSLRLSCTASGFTFRDNWMSWVRQAPGKGLEWVADINQNGRYFYYIDAVKGRFTISRDNAKSSLYLQMNSLGAEDTAVYYCARAFQRGRGWHFDLWGRGTLVTVSSSYVLTQPPSVSVAPGQTARITCGGTNIGDISVHWYQQRPGQAPLVVVYDDSDRPSGIPERFSGSNSGNTATLTISRVEAGDEADYYCQVWDDSINAYVFGTGTKVTVL
H3K4me3 peptide [4]
  binding result: no binding (tested: 500 nM)
H3K27me3 peptide [5]
  binding result: no binding (tested: 500 nM)
H3K36me3 peptide [6]
  binding result: no binding (tested: 500 nM)

B3: 36H3 (scFv)
scFv: EVQLVETGGGVVQPGRSLRLSCTASGFTFRDYWMSWVRQAPGKGLEWVADLNKDGKYAYYLDAVKGRFTISRDNAKSSLYLQMNSLGAEDTAVYYCARDFVRGSGWHFDLWGRGTLVTVSSSYVLTQPPSVSVAPGQTARITCGGTNIGDISVHWYQQRPGQAPLVVVYDDSDRPSGIPERFSGSNSGNTATLTISRVEAGDEADYYCQVWDDSINAYVFGTGTKVTVL
H3K4me3 peptide [7]
  binding result: no binding (tested: 500 nM)
H3K27me3 peptide [8]
  binding result: no binding (tested: 500 nM)
H4K20me3 peptide [9]
  binding result: no binding (tested: 500 nM)

B4: 304M3-A (Fab, V domains shown)
VH: EVQLVETGGGVVQPGRSLRLSCTASGFTFRDYWMSWVRQAPGKGLEWVADINQDGSALYYVDAVKGRFTISRDNAKSSLYLQMNSLGAEDTAVYYCARDLIYGFGWHFDLWGRGTLVTVSS
VL: not shown
notes: Produced and characterized in the same manner as 309M3-A: biotinylated Fab with a biotinylation acceptor peptide at the C-terminus of the heavy chain; also called recombinant anti-H3K4me3 antibody; 304M3-A antibody
H3K36me3 peptide [10]
  binding result: no binding
H3K56me3 peptide [11]
  binding result: no binding
H3K4me3 peptide [12]
  fold increase in affinity compared with the lead antibody (scFv 4-5): 360 fold
H3K4me3 peptide [13]
  Kd: 20 nM
H3K4me3 peptide [14]
  Kd: 16 nM

B5: 309M3-A (Fab, V domains shown)
VH: EVQLVETGGGVVQPGRSLRLSCTASGFTFRDHWMSWVRQAPGKGLEWVADINGDSILEYYVDAVKGRFTISRDNAKSSLYLQMNSLGAEDTAVYYCARDFHRGYGWHFDLWGRGTLVTVSS
VL: not shown
notes: also called recombinant anti-H3K9me3 antibody; 309M3-A antibody
H3K27me3 peptide [2]
  binding result: no binding (tested: 100 nM peptide)
[15]
  ChIP enrichment relative to pAb-056-050 (lot A93-0042): ~3 fold
H3K4me3 peptide [16]
  binding result: no binding (tested: 500 nM)
H4K20me3 peptide [17]
  binding result: no binding (tested: 500 nM)
H3K36me3 peptide [18]
  binding result: no binding (tested: 500 nM)
H3K56me3 peptide [19]
  binding result: no binding (tested: 500 nM)

Reference: patent US20160130329A1 (UNIVERSITY OF CHICAGO, published 2016)
